# Test results published in patent publication US20260242735A1 (UNIVERSIT T BASEL, published 2026).
# B1: Refmab #5 (antibody, V domains shown)
# VH: QVQLVQSGAEVKKPGASVKVSCKASGYTFTNYDINWVRQAPGQGLEWIGWIYPGDGSTKYNEKFKAKATLTADTSTSTAYMELRSLRSDDTAVYYCASGYEDAMDYWGQGTTVTVSS
# VL: DIQMTQSPSSLSASVGDRVTINCKASQDINSYLSWFQQKPGKAPKTLIYRANRLVDGVPSRFSGSGSGQDYTLTISSLQPEDFATYYCLQYDEFPLTFGGGTKVEIK
# notes: The alanine scan used IgG or Fab
# B2: Refmab #5 (antibody, V domains shown)
# VH: B1 VH
# VL: B1 VL
# notes: Full-length format is human IgG1 Fc silent (PG-LALA); The alanine scan used IgG or Fab
# Experiments:
# human CD33 V39A = human CD33 V39A (human, UniProt P20138 18-364); assay: flow cytometry, alanine scan
# Protocol: (§1) An alanine scan on human CD33 was performed to the determine the residues on CD33 that are involved in binding to the antibodies investigated. […] Briefly, a mutation library of CD33 was created by high-throughput, site-directed mutagenesis. Each residue was individually mutated to alanine, with alanine codons mutated to serine. The mutant library was arrayed in 384-well microplates and transiently transfected into HEK293-T. Following transfection, cells were incubated with the indicated antibodies (IgG or Fab) at concentrations pre-determined using an independent immunofluorescence titration curve on wild type CD33. […] Binding of each antibody to each mutant clone was determined in duplicates. For each point, background fluorescence was subtracted from the raw data, which were then normalized to antibody reactivity with wild type CD33.
# (§2) Critical residues for antibody binding (outlined in dark grey) were residues whose mutations led to a binding of the test Abs of less than 20%. Additional secondary residues (outlined in light grey) were identified that led to a binding of the test Abs of between 20 and 40% as compared to the wild type CD33.
# human CD33 T42A = human CD33 T42A (human, UniProt P20138 18-364); assay: flow cytometry, alanine scan
# Chain of human CD33 T42A (P20138 18-364 T42A limits assumed): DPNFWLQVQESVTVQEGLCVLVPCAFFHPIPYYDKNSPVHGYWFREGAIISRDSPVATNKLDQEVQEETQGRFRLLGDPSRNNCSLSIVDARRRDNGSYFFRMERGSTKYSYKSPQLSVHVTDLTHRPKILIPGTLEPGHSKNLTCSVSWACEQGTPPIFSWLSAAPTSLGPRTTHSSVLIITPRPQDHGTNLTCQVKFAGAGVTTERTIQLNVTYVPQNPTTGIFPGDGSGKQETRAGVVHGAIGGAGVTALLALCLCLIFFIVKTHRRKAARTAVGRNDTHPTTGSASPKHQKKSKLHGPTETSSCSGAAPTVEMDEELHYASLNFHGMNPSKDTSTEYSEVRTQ
# Protocol: as §1, §2
# human CD33 V37A = human CD33 V37A (human, UniProt P20138 18-364); assay: flow cytometry, alanine scan
# Protocol: as §1, §2
# human CD33 T30A = human CD33 T30A (human, UniProt P20138 18-364); assay: flow cytometry, alanine scan
# Protocol: as §1, §2
# human CD33 L38A = human CD33 L38A (human, UniProt P20138 18-364); assay: flow cytometry, alanine scan
# Chain of human CD33 L38A (P20138 18-364 L38A limits assumed): as the sequence (P20138 18-364 T42A limits assumed) above, with L21A, A25T counted along it
# Protocol: as §1, §2
# human CD33 Q26A = human CD33 Q26A (human, UniProt P20138 18-364); assay: flow cytometry, alanine scan
# Chain of human CD33 Q26A (P20138 18-364 Q26A limits assumed): as the sequence (P20138 18-364 T42A limits assumed) above, with Q9A, A25T counted along it
# Protocol: as §1, §2
# human CD33 P40A = human CD33 P40A (human, UniProt P20138 18-364); assay: flow cytometry, alanine scan
# Chain of human CD33 P40A (P20138 18-364 P40A limits assumed): as the sequence (P20138 18-364 T42A limits assumed) above, with P23A, A25T counted along it
# Protocol: as §1, §2
# human CD33 F21A = human CD33 F21A (human, UniProt P20138 18-364); assay: flow cytometry, alanine scan
# Protocol: as §1, §2
# human CD33 F44A = human CD33 F44A (human, UniProt P20138 18-364); assay: flow cytometry, alanine scan
# Protocol: as §1, §2
# human CD33 S28A = human CD33 S28A (human, UniProt P20138 18-364); assay: flow cytometry, alanine scan
# Protocol: as §1, §2
# human CD33 V29A = human CD33 V29A (human, UniProt P20138 18-364); assay: flow cytometry, alanine scan
# Chain of human CD33 V29A (P20138 18-364 V29A limits assumed): as the sequence (P20138 18-364 T42A limits assumed) above, with V12A, A25T counted along it
# Protocol: as §1, §2
# human CD33 L35A = human CD33 L35A (human, UniProt P20138 18-364); assay: flow cytometry, alanine scan
# Protocol: as §1, §2
# human CD33 E33A = human CD33 E33A (human, UniProt P20138 18-364); assay: flow cytometry, alanine scan
# Protocol: as §1, §2
# human CD33 Q24A = human CD33 Q24A (human, UniProt P20138 18-364); assay: flow cytometry, alanine scan
# Protocol: as §1, §2
# human CD33 N20A = human CD33 N20A (human, UniProt P20138 18-364); assay: flow cytometry, alanine scan
# Chain of human CD33 N20A (P20138 18-364 N20A limits assumed): as the sequence (P20138 18-364 T42A limits assumed) above, with N3A, A25T counted along it
# Protocol: as §1, §2
# human CD33 G34A = human CD33 G34A (human, UniProt P20138 18-364); assay: flow cytometry, alanine scan
# Protocol: as §1, §2
# human CD33 W22A = human CD33 W22A (human, UniProt P20138 18-364); assay: flow cytometry, alanine scan
# Protocol: as §1, §2
# human CD33 P19A = human CD33 P19A (human, UniProt P20138 18-364); assay: flow cytometry, alanine scan
# Chain of human CD33 P19A (P20138 18-364 P19A limits assumed): as the sequence (P20138 18-364 T42A limits assumed) above, with P2A, A25T counted along it
# Protocol: as §1, §2
# human CD33 V31A = human CD33 V31A (human, UniProt P20138 18-364); assay: flow cytometry, alanine scan
# Protocol: as §1, §2
# human CD33 L23A = human CD33 L23A (human, UniProt P20138 18-364); assay: flow cytometry, alanine scan
# Protocol: as §1, §2
# human CD33 V25A = human CD33 V25A (human, UniProt P20138 18-364); assay: flow cytometry, alanine scan
# Protocol: as §1, §2
# human CD33 D18A = human CD33 D18A (human, UniProt P20138 19-364); assay: flow cytometry, alanine scan
# Protocol: as §1, §2
# human CD33 F43A = human CD33 F43A (human, UniProt P20138 18-364); assay: flow cytometry, alanine scan
# Protocol: as §1, §2
# human CD33 C41A = human CD33 C41A (human, UniProt P20138 18-364); assay: flow cytometry, alanine scan
# Protocol: as §1, §2
# human CD33 H45A = human CD33 H45A (human, UniProt P20138 18-364); assay: flow cytometry, alanine scan
# Chain of human CD33 H45A (P20138 18-364 H45A limits assumed): as the sequence (P20138 18-364 T42A limits assumed) above, with A25T, H28A counted along it
# Protocol: as §1, §2
# human CD33 Q32A = human CD33 Q32A (human, UniProt P20138 18-364); assay: flow cytometry, alanine scan
# Protocol: as §1, §2
# human CD33 C36A = human CD33 C36A (human, UniProt P20138 18-364); assay: flow cytometry, alanine scan
# Chain of human CD33 C36A (P20138 18-364 C36A limits assumed): as the sequence (P20138 18-364 T42A limits assumed) above, with C19A, A25T counted along it
# Protocol: as §1, §2
# human CD33 E27A = human CD33 E27A (human, UniProt P20138 18-364); assay: flow cytometry, alanine scan
# Protocol: as §1, §2
# human CD33 S355A = target: T1, human CD33 S355A (human, UniProt P20138 18-364); assay: alanine scan; flow cytometry, HEK293-T cells expressing the mutant; normalised to WT CD33;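 further: antibodies (IgG or Fab) at doses pre-set by titration on wild-type CD33, duplicate readings with background fluorescence subtracted, mutants made by site-directed alanine substitution (alanine changed to serine)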
# T1 construct: Alanine-scan mutant clone of CD33 transiently transfected into HEK293-T cells
# T1 sequence (P20138 18-364 S355A limits assumed): as the sequence (P20138 18-364 T42A limits assumed) above, with A25T, S338A counted along it
# Protocol: as §1, §2
# human CD33 Y358A = target: T2, human CD33 Y358A (human, UniProt P20138 18-364); assay: as above
# T2 construct: Alanine-scan mutant clone of CD33 transiently transfected into HEK293-T cells
# Protocol: as §1, §2
# human CD33 M348A = target: T3, human CD33 M348A (human, UniProt P20138 18-364); assay: as above
# T3 construct: Alanine-scan mutant clone of CD33 transiently transfected into HEK293-T cells
# Protocol: as §1, §2
# human CD33 Q364A = target: T4, human CD33 Q364A (human, UniProt P20138 18-363); assay: as above
# T4 construct: Alanine-scan mutant clone of CD33 transiently transfected into HEK293-T cells
# Protocol: as §1, §2
# human CD33 E360A = target: T5, human CD33 E360A (human, UniProt P20138 18-364); assay: as above
# T5 construct: Alanine-scan mutant clone of CD33 transiently transfected into HEK293-T cells
# Protocol: as §1, §2
# human CD33 G347A = target: T6, human CD33 G347A (human, UniProt P20138 18-364); assay: as above
# T6 construct: Alanine-scan mutant clone of CD33 transiently transfected into HEK293-T cells
# Protocol: as §1, §2
# human CD33 P350A = target: T7, human CD33 P350A (human, UniProt P20138 18-364); assay: as above
# T7 construct: Alanine-scan mutant clone of CD33 transiently transfected into HEK293-T cells
# T7 sequence (P20138 18-364 P350A limits assumed): as the sequence (P20138 18-364 T42A limits assumed) above, with A25T, P333A counted along it
# Protocol: as §1, §2
# human CD33 H346A = target: T8, human CD33 H346A (human, UniProt P20138 18-364); assay: as above
# T8 construct: Alanine-scan mutant clone of CD33 transiently transfected into HEK293-T cells
# T8 sequence (P20138 18-364 H346A limits assumed): as the sequence (P20138 18-364 T42A limits assumed) above, with A25T, H329A counted along it
# Protocol: as §1, §2
# human CD33 S351A = target: T9, human CD33 S351A (human, UniProt P20138 18-364); assay: as above
# T9 construct: Alanine-scan mutant clone of CD33 transiently transfected into HEK293-T cells
# Protocol: as §1, §2
# human CD33 V361A = target: T10, human CD33 V361A (human, UniProt P20138 18-364); assay: as above
# T10 construct: Alanine-scan mutant clone of CD33 transiently transfected into HEK293-T cells
# Protocol: as §1, §2
# human CD33 T354A = target: T11, human CD33 T354A (human, UniProt P20138 18-364); assay: as above
# T11 construct: Alanine-scan mutant clone of CD33 transiently transfected into HEK293-T cells
# Protocol: as §1, §2
# human CD33 S359A = target: T12, human CD33 S359A (human, UniProt P20138 18-364); assay: as above
# T12 construct: Alanine-scan mutant clone of CD33 transiently transfected into HEK293-T cells
# Protocol: as §1, §2
# human CD33 T356A = target: T13, human CD33 T356A (human, UniProt P20138 18-364); assay: as above
# T13 construct: Alanine-scan mutant clone of CD33 transiently transfected into HEK293-T cells
# T13 sequence (P20138 18-364 T356A limits assumed): as the sequence (P20138 18-364 T42A limits assumed) above, with A25T, T339A counted along it
# Protocol: as §1, §2
# human CD33 R362A = target: T14, human CD33 R362A (human, UniProt P20138 18-364); assay: as above
# T14 construct: Alanine-scan mutant clone of CD33 transiently transfected into HEK293-T cells
# Protocol: as §1, §2
# human CD33 D353A = target: T15, human CD33 D353A (human, UniProt P20138 18-364); assay: as above
# T15 construct: Alanine-scan mutant clone of CD33 transiently transfected into HEK293-T cells
# Protocol: as §1, §2
# human CD33 T363A = target: T16, human CD33 T363A (human, UniProt P20138 18-364); assay: as above
# T16 construct: Alanine-scan mutant clone of CD33 transiently transfected into HEK293-T cells
# Protocol: as §1, §2
# human CD33 K352A = target: T17, human CD33 K352A (human, UniProt P20138 18-364); assay: as above
# T17 construct: Alanine-scan mutant clone of CD33 transiently transfected into HEK293-T cells
# Protocol: as §1, §2
# human CD33 N349A = target: T18, human CD33 N349A (human, UniProt P20138 18-364); assay: as above
# T18 construct: Alanine-scan mutant clone of CD33 transiently transfected into HEK293-T cells
# T18 sequence (P20138 18-364 N349A limits assumed): as the sequence (P20138 18-364 T42A limits assumed) above, with A25T, N332A counted along it
# Protocol: as §1, §2
# human CD33 E357A = target: T19, human CD33 E357A (human, UniProt P20138 18-364); assay: as above
# T19 construct: Alanine-scan mutant clone of CD33 transiently transfected into HEK293-T cells
# Protocol: as §1, §2
binder,measurement,setting,value
B1,Mean % WT Binding,human CD33 V39A,116 % of WT
same,Mean % WT Binding,human CD33 T42A,115 % of WT
same,Mean % WT Binding,human CD33 V37A,148 % of WT
same,Mean % WT Binding,human CD33 T30A,118 % of WT
same,Mean % WT Binding,human CD33 L38A,180 % of WT
same,Mean % WT Binding,human CD33 Q26A,104 % of WT
same,Mean % WT Binding,human CD33 P40A,117 % of WT
same,Mean % WT Binding,human CD33 F21A,197 % of WT
same,Mean % WT Binding,human CD33 F44A,122 % of WT
same,Mean % WT Binding,human CD33 S28A,105 % of WT
same,Mean % WT Binding,human CD33 V29A,122 % of WT
same,Mean % WT Binding,human CD33 L35A,112 % of WT
same,Mean % WT Binding,human CD33 E33A,106 % of WT
same,Mean % WT Binding,human CD33 Q24A,115 % of WT
same,Mean % WT Binding,human CD33 N20A,94.4 % of WT
same,Mean % WT Binding,human CD33 G34A,101 % of WT
same,Mean % WT Binding,human CD33 W22A,114 % of WT
same,Mean % WT Binding,human CD33 P19A,114 % of WT
same,Mean % WT Binding,human CD33 V31A,112 % of WT
same,Mean % WT Binding,human CD33 L23A,118 % of WT
same,Mean % WT Binding,human CD33 V25A,143 % of WT
same,Mean % WT Binding,human CD33 D18A,139 % of WT
same,Mean % WT Binding,human CD33 F43A,87.8 % of WT
same,Mean % WT Binding,human CD33 C41A,30.9 % of WT
same,Mean % WT Binding,human CD33 H45A,58.4 % of WT
same,Mean % WT Binding,human CD33 Q32A,148 % of WT
same,Mean % WT Binding,human CD33 C36A,137 % of WT
same,Mean % WT Binding,human CD33 E27A,186 % of WT
B2,Mean % WT Binding,human CD33 S355A,126 % WT binding
same,Mean % WT Binding,human CD33 Y358A,97.9 % WT binding
same,Mean % WT Binding,human CD33 M348A,92.3 % WT binding
same,Mean % WT Binding,human CD33 Q364A,107 % WT binding
same,Mean % WT Binding,human CD33 E360A,107 % WT binding
same,Mean % WT Binding,human CD33 G347A,104 % WT binding
same,Mean % WT Binding,human CD33 P350A,93.8 % WT binding
same,Mean % WT Binding,human CD33 H346A,114 % WT binding
same,Mean % WT Binding,human CD33 S351A,88.9 % WT binding
same,Mean % WT Binding,human CD33 V361A,84.5 % WT binding
same,Mean % WT Binding,human CD33 T354A,84.7 % WT binding
same,Mean % WT Binding,human CD33 S359A,87.2 % WT binding
same,Mean % WT Binding,human CD33 T356A,89.3 % WT binding
same,Mean % WT Binding,human CD33 R362A,101 % WT binding
same,Mean % WT Binding,human CD33 D353A,74.6 % WT binding
same,Mean % WT Binding,human CD33 T363A,90.1 % WT binding
same,Mean % WT Binding,human CD33 K352A,112 % WT binding
same,Mean % WT Binding,human CD33 N349A,84.9 % WT binding
same,Mean % WT Binding,human CD33 E357A,75.3 % WT binding
